What was measured:
Assay in all cases: cell-based or functional assay
[1] = biological target: HIV-1 92RW008 Env (HIV-1)
[2] = biological target: HIV-1 92TH021 Env (HIV-1)
[3] = biological target: HIV-1 92UG031 Env (HIV-1)
[4] = biological target: HIV-1 92UG037 Env (HIV-1)
[5] = biological target: HIV-1 92WR009 Env (HIV-1)
[6] = biological target: HIV-1 92WR020 Env (HIV-1)
[7] = biological target: HIV-1 92WR021 Env (HIV-1)
[8] = biological target: HIV-1 92WR024 Env (HIV-1)
[9] = biological target: HIV-1 93UG077 Env (HIV-1)
[10] = biological target: HIV-1 93WR029 Env (HIV-1)
[11] = biological target: HIV-1 94KE105 Env (HIV-1)
[12] = biological target: HIV-1 94UG103 Env (HIV-1)
[13] = biological target: HIV-1 CMU02 Env (HIV-1)
[14] = biological target: HIV-1 MGRM-A-001 Env (HIV-1)
[15] = biological target: HIV-1 MGRM-A-003 Env (HIV-1)
[16] = biological target: HIV-1 MGRM-A-004 Env (HIV-1)
[17] = biological target: HIV-1 MGRM-A-005 Env (HIV-1)
[18] = biological target: HIV-1 MGRM-A-006 Env (HIV-1)
[19] = biological target: HIV-1 MGRM-A-007 Env (HIV-1)
[20] = biological target: HIV-1 MGRM-A-008 Env (HIV-1)
[21] = biological target: HIV-1 MGRM-A-009 Env (HIV-1)
[22] = biological target: HIV-1 MGRM-A-010 Env (HIV-1)
[23] = biological target: HIV-1 MGRM-A-011 Env (HIV-1)
[24] = biological target: HIV-1 MGRM-A-012 Env (HIV-1)
[25] = biological target: HIV-1 MGRM-A-013 Env (HIV-1)
[26] = biological target: HIV-1 MGRM-A-014 Env (HIV-1)
[27] = biological target: HIV-1 MGRM-AE-001 Env (HIV-1)
[28] = biological target: HIV-1 MGRM-AE-002 Env (HIV-1)
[29] = biological target: HIV-1 MGRM-AE-003 Env (HIV-1)
[30] = biological target: HIV-1 MGRM-AE-004 Env (HIV-1)
[31] = biological target: HIV-1 MGRM-AE-005 Env (HIV-1)
[32] = biological target: HIV-1 MGRM-AE-006 Env (HIV-1)
[33] = biological target: HIV-1 MGRM-AE-007 Env (HIV-1)
[34] = biological target: HIV-1 MGRM-AE-008 Env (HIV-1)
[35] = biological target: HIV-1 MGRM-AG-002 Env (HIV-1)
[36] = biological target: HIV-1 MGRM-AG-009 Env (HIV-1)
[37] = biological target: HIV-1 MGRM-AG-011 Env (HIV-1)
[38] = biological target: HIV-1 MGRM-AG-012 Env (HIV-1)
[39] = biological target: HIV-1 VLGCA1 Env (HIV-1)
[40] = biological target: HIV-1 92WR026 Env (HIV-1)
[41] = biological target: HIV-1 MGRM-A-002 Env (HIV-1)
[42] = biological target: HIV-1 MGRM-AG-001 Env (HIV-1)
[43] = biological target: HIV-1 MGRM-AG-003 Env (HIV-1)
[44] = biological target: HIV-1 MGRM-AG-005 Env (HIV-1)
[45] = biological target: HIV-1 MGRM-AG-006 Env (HIV-1)
[46] = biological target: HIV-1 MGRM-AG-008 Env (HIV-1)
[47] = biological target: HIV-1 MGRM-AG-013 Env (HIV-1)

4838_L06 (PGT-121) (antibody)
IC50 [1]: 3 ng/mL | IC50 [2]: > 50 µg/mL | IC50 [3]: > 50 µg/mL | IC50 [4]: 0.031 µg/mL | IC50 [5]: 1.74 µg/mL | IC50 [6]: 4 ng/mL | IC50 [7]: 9 ng/mL | IC50 [8]: > 50 µg/mL | IC50 [9]: 0.019 µg/mL | IC50 [10]: > 50 µg/mL | IC50 [11]: 0.029 µg/mL | IC50 [12]: 2.52 µg/mL | IC50 [13]: > 50 µg/mL | IC50 [14]: > 50 µg/mL | IC50 [15]: 0.435 µg/mL | IC50 [16]: > 50 µg/mL | IC50 [17]: > 50 µg/mL | IC50 [18]: 0.396 µg/mL | IC50 [19]: > 50 µg/mL | IC50 [20]: > 50 µg/mL | IC50 [21]: 6 ng/mL | IC50 [22]: 2.44 µg/mL | IC50 [23]: > 50 µg/mL | IC50 [24]: 0.092 µg/mL | IC50 [25]: 0.387 µg/mL | IC50 [26]: 3 ng/mL | IC50 [27]: > 50 µg/mL | IC50 [28]: > 50 µg/mL | IC50 [29]: > 50 µg/mL | IC50 [30]: > 50 µg/mL | IC50 [31]: > 50 µg/mL | IC50 [32]: > 50 µg/mL | IC50 [33]: > 50 µg/mL | IC50 [34]: > 50 µg/mL | IC50 [35]: > 50 µg/mL | IC50 [36]: 0.08 µg/mL | IC50 [37]: > 50 µg/mL | IC50 [38]: > 50 µg/mL | IC50 [39]: > 50 µg/mL

4858_P08 (PGT-123) (antibody)
IC50 [1]: 3 ng/mL | IC50 [2]: > 50 µg/mL | IC50 [3]: > 50 µg/mL | IC50 [4]: 0.023 µg/mL | IC50 [5]: 15.7 µg/mL | IC50 [6]: 2 ng/mL | IC50 [7]: 5 ng/mL | IC50 [8]: > 50 µg/mL | IC50 [40]: 0.012 µg/mL | IC50 [9]: 0.028 µg/mL | IC50 [10]: > 50 µg/mL | IC50 [11]: 0.024 µg/mL | IC50 [12]: 0.678 µg/mL | IC50 [13]: > 50 µg/mL | IC50 [14]: > 50 µg/mL | IC50 [41]: 0.011 µg/mL | IC50 [15]: 0.495 µg/mL | IC50 [16]: > 50 µg/mL | IC50 [17]: > 50 µg/mL | IC50 [18]: > 50 µg/mL | IC50 [19]: > 50 µg/mL | IC50 [20]: > 50 µg/mL | IC50 [21]: 4 ng/mL | IC50 [22]: 0.705 µg/mL | IC50 [23]: > 50 µg/mL | IC50 [24]: 0.192 µg/mL | IC50 [25]: 0.565 µg/mL | IC50 [26]: 3 ng/mL | IC50 [27]: > 50 µg/mL | IC50 [28]: > 50 µg/mL | IC50 [29]: > 50 µg/mL | IC50 [30]: > 50 µg/mL | IC50 [31]: > 50 µg/mL | IC50 [32]: > 50 µg/mL | IC50 [33]: > 50 µg/mL | IC50 [34]: > 50 µg/mL | IC50 [42]: 2.51 µg/mL | IC50 [35]: > 50 µg/mL | IC50 [43]: > 50 µg/mL | IC50 [44]: 0.149 µg/mL | IC50 [45]: 0.014 µg/mL | IC50 [46]: 19.2 µg/mL | IC50 [36]: 0.073 µg/mL | IC50 [37]: > 50 µg/mL | IC50 [38]: > 50 µg/mL | IC50 [47]: 3.37 µg/mL | IC50 [39]: > 50 µg/mL

4877_D15 (PGT-122) (antibody)
IC50 [1]: 3 ng/mL | IC50 [2]: > 50 µg/mL | IC50 [3]: > 50 µg/mL | IC50 [4]: 0.068 µg/mL | IC50 [5]: 42.4 µg/mL | IC50 [6]: 9 ng/mL | IC50 [7]: 21 ng/mL | IC50 [8]: > 50 µg/mL | IC50 [40]: 0.036 µg/mL | IC50 [9]: 0.084 µg/mL | IC50 [10]: > 50 µg/mL | IC50 [11]: 0.056 µg/mL | IC50 [12]: 2.04 µg/mL | IC50 [13]: > 50 µg/mL | IC50 [14]: > 50 µg/mL | IC50 [41]: 0.017 µg/mL | IC50 [15]: 3.79 µg/mL | IC50 [16]: > 50 µg/mL | IC50 [17]: > 50 µg/mL | IC50 [18]: > 50 µg/mL | IC50 [19]: > 50 µg/mL | IC50 [20]: > 50 µg/mL | IC50 [21]: 12 ng/mL | IC50 [22]: 2.51 µg/mL | IC50 [23]: > 50 µg/mL | IC50 [24]: 0.257 µg/mL | IC50 [25]: 2.47 µg/mL | IC50 [26]: 7 ng/mL | IC50 [27]: > 50 µg/mL | IC50 [28]: > 50 µg/mL | IC50 [29]: > 50 µg/mL | IC50 [30]: > 50 µg/mL | IC50 [31]: > 50 µg/mL | IC50 [32]: > 50 µg/mL | IC50 [33]: > 50 µg/mL | IC50 [34]: > 50 µg/mL | IC50 [42]: 14.5 µg/mL | IC50 [35]: > 50 µg/mL | IC50 [43]: 43.7 µg/mL | IC50 [44]: 33.9 µg/mL | IC50 [45]: 0.028 µg/mL | IC50 [46]: > 50 µg/mL | IC50 [36]: 0.128 µg/mL | IC50 [37]: > 50 µg/mL | IC50 [38]: > 50 µg/mL | IC50 [47]: 0.521 µg/mL | IC50 [39]: > 50 µg/mL
